# Results from article PMC10409766, “Cryo-EM structures of human zinc transporter ZnT7 reveal the mechanism of Zn^2+ uptake into the Golgi apparatus” (Nature Communications, 2023).
# What was measured:
# [1] = biological target: the molecule itself; test: cryo-EM structure; single-particle cryo-EM of hZnT7-Fab complexes purified by SEC in 0.02% GDN (Talos Arctica for first maps, CRYO ARM 300II for final data); samples with 1 mM EDTA, with 10 µM Zn2+ or with 200 or 300 µM Zn2+ added
# [2] = biological target: T1, human ZnT7 (hZnT7) with an N-terminal PA-tag (human, UniProt Q8NEW0); test: ELISA + SEC; liposome ELISA on biotinylated hZnT7 proteoliposomes immobilised on streptavidin-coated microplates (with negative selection on SDS-denatured hZnT7); formation of stable complexes by fluorescence-detection SEC
# T1 construct: human zinc transporter ZnT7, UniProt Q8NEW0; cDNA synthesized with codon optimization; the final model holds residues 22-376; In the antibody screening the purified protein was reconstituted into (biotinylated) proteoliposomes; also called hZnT7 WT; wild-type hZnT7
# [3] = biological target: T1, human ZnT7 (hZnT7) with an N-terminal …; test: cryo-EM structure; single-particle cryo-EM of hZnT7-Fab complexes purified by SEC in 0.02% GDN (Talos Arctica for first maps, CRYO ARM 300II for final data); samples with 1 mM EDTA, with 10 µM Zn2+ or with 200 or 300 µM Zn2+ added; conditions: both partners purified
binder,measurement,setting,value
"hZnT7ΔHis-loop (residues His176 to Pro221 deleted), PA-tagged (natural protein, human, human zinc transporter ZnT7, UniProt Q8NEW0, with the major portion of the His-loop (His176 to Pro221) deleted; Primers are in Supplementary Data 1; The dimer (copies 2) follows from the 'OF-OF form' and the C2 symmetry; also called hZnT7∆His-loop; pcDNA3.1-PA-hZnT7ΔHis-loop; source: HEK293T, transfected (pcDNA3.1, PEI), purified (anti-PA-tag antibody beads, SEC)) MLPLSIKDDEYKPPKFNLFGKISGWFRSILSDKTSRNLFFFLCLNLSFAFVELLYGIWSNCLGLISDSFHMFFDSTAILAGLAASVISKWRDNDAFSYGYVRAEVLAGFVNGLFLIFTAFFIFSEGVERALAPPDVHHERLLLVSILGFVVNLIGIFVFKHGGHGHSHGSGHGHSSLKETTGPSRQILQGVFLHILADTLGSIGVIASAIMMQNFGLMIADPICSILIAILIVVSVIPLLRESVGILMQRTPPLLENSLPQCYQRVQQLQGVYSLQEQHFWTLCSDVYVGTLKLIVAPDADARWILSQTHNIFTQAGVRQLYVQIDFAAM",binding result,[1],binds
"mouse monoclonal antibody YN7114-08 against hZnT7 (parent of Fab#1) (antibody, V domains shown, Whole antibody as screened by liposome ELISA and fluorescence-detection SEC; source: mouse hybridoma (MRL/lpr mice immunised with hZnT7 proteoliposomes)) VH: EVQLQESGPGLVAPSQSLSITCTVSGFSLTNYAVHWVRQSPGKGLEWLGVIWSNGRTDYNAAFISRLSISKDNSKSQVFFKMNSLQADDTAIYYCARKLAYEGAMDYWGQGTSVTVSS VL: DIVLTQSPASLAVSLRRRATISCRASESVDGYGHSFMHWYQQKSGQPPKLLIYRASNLESGVPARFSGSGSRTDFTLTIDPVEADDAATYYCQQSNEDPYTFGSGTKLEIK",binding result,[2],binds
"Fab#1 (YN7114-08), Fab fragment of a mouse monoclonal antibody against hZnT7 (Fab, V domains shown, the model holds Fab heavy chain residues 1-234; also in the deposited PDB entries; the model holds Fab light chain residues 1-218; also called the Fab fragment; source: Fab fragment of a mouse monoclonal antibody (hybridoma, MRL/lpr mice immunised with hZnT7 proteoliposomes)) VH: EVQLQESGPGLVAPSQSLSITCTVSGFSLTNYAVHWVRQSPGKGLEWLGVIWSNGRTDYNAAFISRLSISKDNSKSQVFFKMNSLQADDTAIYYCARKLAYEGAMDYWGQGTSVTVSS VL: DIVLTQSPASLAVSLRRRATISCRASESVDGYGHSFMHWYQQKSGQPPKLLIYRASNLESGVPARFSGSGSRTDFTLTIDPVEADDAATYYCQQSNEDPYTFGSGTKLEIK",binding result,[3],binds
"human ZnT7 (hZnT7) with an N-terminal PA-tag (natural protein, human zinc transporter ZnT7, UniProt Q8NEW0; cDNA synthesized with codon optimization; the final model holds residues 22-376; In the antibody screening the purified protein was reconstituted into (biotinylated) proteoliposomes; also called hZnT7 WT; wild-type hZnT7) MLPLSIKDDEYKPPKFNLFGKISGWFRSILSDKTSRNLFFFLCLNLSFAFVELLYGIWSNCLGLISDSFHMFFDSTAILAGLAASVISKWRDNDAFSYGYVRAEVLAGFVNGLFLIFTAFFIFSEGVERALAPPDVHHERLLLVSILGFVVNLIGIFVFKHGGHGHSHGSGHGHSHSLFNGALDQAHGHVDHCHSHEVKHGAAHSHDHAHGHGHFHSHDGPSLKETTGPSRQILQGVFLHILADTLGSIGVIASAIMMQNFGLMIADPICSILIAILIVVSVIPLLRESVGILMQRTPPLLENSLPQCYQRVQQLQGVYSLQEQHFWTLCSDVYVGTLKLIVAPDADARWILSQTHNIFTQAGVRQLYVQIDFAAM",stoichiometry N,[1],2
